In paper PMC10218236:
Values joined by “and” are separate entries in the source; they are usually repeats but may differ in a detail not shown here. Equal entries are not always repeated.

Biological target: L1CAM on L1CAM-high cells (LoVo) (Homo sapiens?) (UniProt P32004)
Test: flow cytometry
Details: PBS, 4.5 g/L glucose, 5 mM MgCl2, 1 mg/mL BSA, 0.1 mg/mL herring sperm DNA, 30 min at 4 °C (or 25/37 °C), pH not stated

L1CAM on L1CAM-high cells (LoVo) (Homo sapiens?), sequence (P32004 20-1257): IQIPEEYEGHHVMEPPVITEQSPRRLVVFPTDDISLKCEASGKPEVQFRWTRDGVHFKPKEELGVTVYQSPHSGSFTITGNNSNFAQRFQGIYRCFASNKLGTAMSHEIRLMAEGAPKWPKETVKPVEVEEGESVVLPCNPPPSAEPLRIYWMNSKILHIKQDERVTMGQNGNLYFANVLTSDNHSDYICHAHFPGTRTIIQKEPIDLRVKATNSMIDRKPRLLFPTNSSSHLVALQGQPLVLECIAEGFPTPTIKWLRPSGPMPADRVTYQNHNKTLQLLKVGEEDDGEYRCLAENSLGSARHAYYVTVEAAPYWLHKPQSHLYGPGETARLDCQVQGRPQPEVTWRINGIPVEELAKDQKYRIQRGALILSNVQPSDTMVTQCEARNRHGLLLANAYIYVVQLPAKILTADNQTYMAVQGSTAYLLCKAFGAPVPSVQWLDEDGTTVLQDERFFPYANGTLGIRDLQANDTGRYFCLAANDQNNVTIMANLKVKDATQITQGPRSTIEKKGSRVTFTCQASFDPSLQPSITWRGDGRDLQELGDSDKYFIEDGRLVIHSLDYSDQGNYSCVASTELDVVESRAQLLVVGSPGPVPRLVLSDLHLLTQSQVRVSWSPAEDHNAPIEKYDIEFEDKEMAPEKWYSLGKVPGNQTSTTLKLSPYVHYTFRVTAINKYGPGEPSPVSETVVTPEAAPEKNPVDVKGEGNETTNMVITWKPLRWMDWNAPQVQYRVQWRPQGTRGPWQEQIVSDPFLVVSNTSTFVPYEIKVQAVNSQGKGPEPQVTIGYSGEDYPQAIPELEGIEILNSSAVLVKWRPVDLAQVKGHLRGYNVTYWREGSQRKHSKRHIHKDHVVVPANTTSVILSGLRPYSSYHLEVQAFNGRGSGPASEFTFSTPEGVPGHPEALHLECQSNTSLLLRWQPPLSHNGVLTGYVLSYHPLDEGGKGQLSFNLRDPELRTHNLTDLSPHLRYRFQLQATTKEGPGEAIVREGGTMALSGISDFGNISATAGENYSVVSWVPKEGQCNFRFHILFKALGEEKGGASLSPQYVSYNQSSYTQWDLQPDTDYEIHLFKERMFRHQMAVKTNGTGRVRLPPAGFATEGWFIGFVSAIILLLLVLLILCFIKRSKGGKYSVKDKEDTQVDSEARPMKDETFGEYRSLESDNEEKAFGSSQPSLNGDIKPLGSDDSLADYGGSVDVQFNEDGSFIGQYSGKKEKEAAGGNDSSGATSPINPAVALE

## AGCGCAGAAGGGGGTAGCTCGGTCGTGTTTTTGGGTTGTTTGGTGGGTCTTCTGCGCT [yly21-9-T]
  Kd: 107 nM

## AGCGCAGATAGGGGGTAGCTCGGTCGTGTTTTTGGGTTGTTTGGTGGGTCTTCTGCGCT [yly21]
  Kd: 1.3 nM and 0.9 nM and 5.1 nM

## AGGATAGGGGGTAGCTCGGTCGTGTTTTTGGGTTGTTTGGTGGGTCTT [yly13]
Cited from earlier work
  Kd: 369 nM

## AGGATAGGGGGTAGCTCGGTCGTGTTTTTGGGTTGTTTGGTGGGTCTTCTG [yly12]
  Kd: 21.6 nM and 111 nM
Cited from earlier work
  Kd: 3.5 nM

## ATAGGGGGTAGCTCGGTCGTGTTTTTGGGTTGTTTGGTGGGTCTTCTG [yly14]
Cited from earlier work
  Kd: 92 nM

## CAGAAGGGGGTAGCTCGGTCGTGTTTTTGGGTTGTTTGGTGGGTCTTCTG [yly20-5-T]
  Kd: 112 nM

## CAGATAGAGGGTAGCTCGGTCGTGTTTTTGGGTTGTTTGGTGGGTCTTCTG [yly20-G8A]
  Kd: 18.9 nM

## CAGATAGGGGGTAGCCCGGTCGTGTTTTCGGGTTGTTTGGTGGGTCTTCTG [yly20-T1629C]
  Kd: 155 nM

## CAGATAGGGGGTAGCCCGGTCGTGTTTTTGGGTTGTTTGGTGGGTCTTCTG [yly20-T16C]
  Kd: 44.2 nM

## CAGATAGGGGGTAGCTAGGTCGTGTTTTTGGGTTGTTTGGTGGGTCTTCTG [yly20-C17A]
  Kd: 3.4 nM

## CAGATAGGGGGTAGCTCGGTCATGTTTTTGGGTTGTTTGGTGGGTCTTCTG [yly20-G22A]
  Kd: 1.3 nM

## CAGATAGGGGGTAGCTCGGTCGTGATTTTGGGTTGTTTGGTGGGTCTTCTG [yly20-T25A]
  Kd: 1.7 nM

## CAGATAGGGGGTAGCTCGGTCGTGTTTCCGGGTTGTTTGGTGGGTCTTCTG [yly20-T2829C]
  Kd: 55.9 nM

## CAGATAGGGGGTAGCTCGGTCGTGTTTCTGGGTTGTTTGGTGGGTCTTCTG [yly20-T28C]
  Kd: 5.3 nM

## CAGATAGGGGGTAGCTCGGTCGTGTTTTCGGGTTGTTTGGTGGGTCTTCTG [yly20-T29C]
  Kd: 4.2 nM

## CAGATAGGGGGTAGCTCGGTCGTGTTTTTGGGCTGTTTGGTGGGTCTTCTG [yly20-T33C]
  Kd: 9.5 nM

## CAGATAGGGGGTAGCTCGGTCGTGTTTTTGGGTTATTTGGTGGGTCTTCTG [yly20-G35A]
  Kd: 53.1 nM

## CAGATAGGGGGTAGCTCGGTCGTGTTTTTGGGTTGTTTGGTGGGCCTTCTG [yly20-T45C]
  Kd: 66.9 nM

## CAGATAGGGGGTAGCTCGGTCGTGTTTTTGGGTTGTTTGGTGGGTATTCTG [yly20-C46A]
  Kd: 46.4 nM

## CAGATAGGGGGTAGCTCGGTCGTGTTTTTGGGTTGTTTGGTGGGTCTTCTG [yly20]
  Kd: 2.3 nM and 1.9 nM and 7.6 nM

## CGGATAGGGGGTAGCTCGGTCGTGTTTTTGGGTTGTTTGGTGGGTCTTCTG [yly34]
  Kd: 3.4 nM and 7.2 nM and 18.7 nM

## GGGATAGGGGGTAGCTCGGTCGTGTTTTTGGGTTGTTTGGTGGGTCTTCTG [yly33]
  Kd: 6.2 nM and 12 nM and 41.4 nM

## TAGGGGGTAGCTCGGTCGTGTTTTTGGGTTGTTTGGTGGGTCTTCTG [yly16]
Cited from earlier work
  Kd: 330 nM

## TTTGGGTTGTTTGGTGGGTCTTCTGCAGATAGGGGGTAGCTCGGTCGTGTT [yly20re]
  Kd: 4.2 nM and 4.4 nM and 13 nM
